One molecule from patent US20030022261A1 (SALK INSTITUTE FOR BIOLOGICAL STUDIES, published 2003) can be followed below.

This test concerns the target T1, papain (immobilised, papain affinity chromatography) (UniProt P00784 134-345).
T1 sequence (looked up): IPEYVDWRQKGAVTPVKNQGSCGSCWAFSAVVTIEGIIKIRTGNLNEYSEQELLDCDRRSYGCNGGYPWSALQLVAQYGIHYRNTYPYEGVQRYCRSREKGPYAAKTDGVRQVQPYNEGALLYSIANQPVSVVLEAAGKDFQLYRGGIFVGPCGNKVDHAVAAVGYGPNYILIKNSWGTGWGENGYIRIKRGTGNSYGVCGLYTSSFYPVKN
Briefly: papain affinity chromatography (retention on immobilised papain during purification).

B1: glycosylated cystatin C (CCg), 21 kDa protein purified from conditioned medium of adult rat hippocampus-derived neural progenitor cells (other, UniProt P14841 21-140, looked up)
chain: GTSRPPPRLLGAPQEADASEEGVQRALDFAVSEYNKGSNDAYHSRAIQVVRARKQLVAGINYYLDVEMGRTTCTKSQTNLTNCPFHDQPHLMRKALCSFQIYSVPWKGTHTLTKSSCKNA
modifications: N-linked carbohydrate moiety of approximately 2.4 kDa (about 15 hexose residues) at the N-glycosylation site (Asn79-X-Thr); carbohydrate moiety of 0.3 kDa at the O-glycosylation site (Ser3)
notes: mature; also called glycosylated form of cystatin C; stem cell glycocystatin C
Regarding B1, the binding result is on record as “binds”.
